{"source": "paper PMC2635920", "about": "(Nature structural & molecular biology, 2009)", "binders": {"B1": {"name": "Sec20ΔC (cytoplasmic domain of Sec20p, residues 1-275) (domain or fragment, S. cerevisiae, UniProt P28791 1-275, looked up)", "chain": "MVVTFLQDLEVLQDALLNNLQKLSAISRRKESGESKHDNKDSFAAIANEHNDEEEEIEFEDLVNIIESKVSDFESVLKCSIVEMTYKYPELKLQWEKSPRYDQCDKLHIVKLDKQMNEDIYAQLVEELDFVLQFVDWFYCYRLKVKEILRQHHKRDLAWNDEKRDRAIKFHAVDYDKLHQGTSSSSSLTSTSMEKASTREKLLSKTKQLTNNLVRGNQILQSGILQSDLNLDELRAQTNSLTQIDDKYTQFETVFKKTADLVKVLENASHQEKRD"}, "B2": {"name": "Dsl1ΔC (Dsl1p residues 1-361) (domain or fragment, S. cerevisiae, UniProt P53847 1-361, looked up)", "chain": "MESLFPNKGEIIRELLKDPLILKNDSKRSNGSELELDSSDLLQREAILANELNILDNLKTFLNLIKEVKTNLNILELENCYYSLQSLRKKMRNNAAYLKQSFNFQQSISTYVDTLHLELVSTLYKILTNGFWKITENSIQFTPTVEWGKDKVHIEYDTFMDFVAQQYFPKGSLDNQAWFILDMTSADSQEQVRAKLNTIMKEYMNLSRIVSMIKNSIFISGKEISYENEKNILVFSKSSSHGQHCVSTVLTSFEAVCDFMLDGLAFRDRKTLSYELGPLFNTEFTKFVKNNASIILESLDSPLKNLVSVINNKLTRLVAKSEVTNWTHSGKEIQDLLMNKQLYYNLLLDKVLESHISEIRS"}, "B3": {"name": "GST-Tip20p (residues 1-43) (domain or fragment, S. cerevisiae, UniProt P33891 1-43, looked up)", "chain": "MNGIDDLLNINDRIKQVQNERNELASKLQNLKQSLASNDTEVA"}}, "key": {"[1]": {"molecular_target": "T1, Tip20p, full-length (residues 1-701) (S. cerevisiae, UniProt P33891 1-701)", "T1 sequence (looked up)": "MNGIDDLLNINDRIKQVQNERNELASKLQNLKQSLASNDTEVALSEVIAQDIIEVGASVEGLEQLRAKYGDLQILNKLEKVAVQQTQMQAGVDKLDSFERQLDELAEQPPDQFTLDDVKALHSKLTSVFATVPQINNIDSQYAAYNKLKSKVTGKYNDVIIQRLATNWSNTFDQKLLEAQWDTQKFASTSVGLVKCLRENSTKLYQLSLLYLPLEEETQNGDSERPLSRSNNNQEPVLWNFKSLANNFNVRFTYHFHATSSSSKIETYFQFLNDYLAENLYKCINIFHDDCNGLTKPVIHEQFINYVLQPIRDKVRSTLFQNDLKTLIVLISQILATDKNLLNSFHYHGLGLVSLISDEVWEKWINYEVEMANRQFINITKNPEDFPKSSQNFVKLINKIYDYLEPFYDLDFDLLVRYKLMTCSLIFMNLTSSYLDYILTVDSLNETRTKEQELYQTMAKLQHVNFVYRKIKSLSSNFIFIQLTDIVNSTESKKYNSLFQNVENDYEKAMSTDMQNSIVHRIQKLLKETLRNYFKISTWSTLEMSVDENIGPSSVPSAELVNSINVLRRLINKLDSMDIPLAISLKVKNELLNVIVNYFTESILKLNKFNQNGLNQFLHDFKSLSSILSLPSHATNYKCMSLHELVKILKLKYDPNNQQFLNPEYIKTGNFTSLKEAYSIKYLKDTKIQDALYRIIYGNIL", "experiment": "SEC"}, "[2]": {"molecular_target": "intact Dsl1p complex (Tip20p-Dsl1p-Sec39p) (S. cerevisiae, UniProt P33891 1-701; P53847 1-754; Q12745 1-709)", "sequence (Q12745 whole entry, one chain of several)": "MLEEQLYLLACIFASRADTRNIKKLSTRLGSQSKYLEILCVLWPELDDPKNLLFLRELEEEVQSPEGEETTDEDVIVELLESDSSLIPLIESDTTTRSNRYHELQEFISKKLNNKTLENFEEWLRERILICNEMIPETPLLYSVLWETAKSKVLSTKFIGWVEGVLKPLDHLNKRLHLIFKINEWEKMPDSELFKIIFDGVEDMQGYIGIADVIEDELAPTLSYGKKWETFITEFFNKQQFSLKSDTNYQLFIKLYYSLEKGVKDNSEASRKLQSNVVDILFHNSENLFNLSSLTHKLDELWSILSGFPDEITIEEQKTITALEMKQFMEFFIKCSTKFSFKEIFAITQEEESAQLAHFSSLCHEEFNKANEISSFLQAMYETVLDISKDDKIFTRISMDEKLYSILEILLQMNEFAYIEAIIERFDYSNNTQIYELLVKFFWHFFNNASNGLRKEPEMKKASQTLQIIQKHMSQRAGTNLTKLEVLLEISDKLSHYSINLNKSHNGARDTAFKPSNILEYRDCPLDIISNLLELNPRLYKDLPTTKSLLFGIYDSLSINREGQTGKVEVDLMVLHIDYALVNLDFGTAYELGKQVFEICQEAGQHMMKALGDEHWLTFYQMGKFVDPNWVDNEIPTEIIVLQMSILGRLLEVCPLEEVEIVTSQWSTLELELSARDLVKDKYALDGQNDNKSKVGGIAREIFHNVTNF", "experiment": "SEC"}, "[3]": {"molecular_target": "T2, Tip20ΔN (Tip20p residues 82-701) (S. cerevisiae, UniProt P33891 82-701)", "T2 sequence (looked up)": "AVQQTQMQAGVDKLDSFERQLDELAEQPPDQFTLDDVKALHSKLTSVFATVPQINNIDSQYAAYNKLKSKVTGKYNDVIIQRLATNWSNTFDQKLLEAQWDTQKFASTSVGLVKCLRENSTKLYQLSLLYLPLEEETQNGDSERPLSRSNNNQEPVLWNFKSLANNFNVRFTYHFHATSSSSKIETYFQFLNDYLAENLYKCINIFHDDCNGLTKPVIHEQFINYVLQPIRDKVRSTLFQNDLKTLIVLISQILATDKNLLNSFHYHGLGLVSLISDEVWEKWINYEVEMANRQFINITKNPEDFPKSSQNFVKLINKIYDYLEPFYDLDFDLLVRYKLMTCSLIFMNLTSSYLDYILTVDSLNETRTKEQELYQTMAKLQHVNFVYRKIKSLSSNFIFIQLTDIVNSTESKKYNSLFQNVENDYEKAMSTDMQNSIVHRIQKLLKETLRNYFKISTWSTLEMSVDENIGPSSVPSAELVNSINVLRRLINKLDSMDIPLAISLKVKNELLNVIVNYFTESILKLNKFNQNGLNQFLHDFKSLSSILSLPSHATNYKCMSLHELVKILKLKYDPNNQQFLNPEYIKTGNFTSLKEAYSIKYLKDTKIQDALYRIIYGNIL", "experiment": "SEC"}, "[4]": {"molecular_target": "T1, Tip20p, full-length (residues 1-701)", "experiment": "AUC"}, "[5]": {"molecular_target": "B2", "experiment": "pull-down"}}, "data": [{"binder": "B1", "values": [{"measurement": "binding result", "setting": "[1]", "result": "binds"}, {"measurement": "binding result", "setting": "[2]", "result": "binds"}, {"measurement": "binding result", "setting": "[3]", "result": "binds"}]}, {"binder": "B2", "values": [{"measurement": "stoichiometry N", "setting": "[4]", "result": 1}]}, {"binder": "B3", "values": [{"measurement": "binding result", "setting": "[5]", "result": "binds"}]}]}
